Reference: PMC8346855

Molecular target: angiotensin II-bound mouse angiotensin II type 1 receptor F117W Δ324 (mouse | human)
Test: cross-linking + other: high-mass MALDI-MS; angiotensin II-bound AT1R (angII-AT1R), 5 µM, mixed with partner protein at various concentrations, 1 h at room temperature, BS(PEG)9 cross-linking, 1.0 µM β-Gal as internal standard; 20 mM Hepes pH 7.5, 40 mM NaCl, 0.01% LMNG; Ka = 1/Kd

B1: mini-Gq (domain or fragment)
chain: GIEKQLQKDKQVYRATHRLLLLGADNSGKSTIVKQMRILHGGSGGSGGTSGIFETKFQVDKVNFHMFDVGGQRDERRKWIQCFNDVTAIIFVVDSSDYNRLQEALNDFKSIWNNRWLRTISVILFLNKQDLLAEKVLAGKSKIEDYFPEFARYTTPEDATPEPGEDPRVTRAKYFIRDEFLRISTASGDGRHYCYPHFTCAVDTENARRIFNDCKDIILQMNLREYNLV
Ka: 480000 M⁻¹
